The record followed here is PMC10530080.

In the test the target is recombinant human ATM, wild type (N-terminal FLAG-FKBP1A) (human) (UniProt Q13315).
UniProt Q13315, sequence (Q13315 whole entry): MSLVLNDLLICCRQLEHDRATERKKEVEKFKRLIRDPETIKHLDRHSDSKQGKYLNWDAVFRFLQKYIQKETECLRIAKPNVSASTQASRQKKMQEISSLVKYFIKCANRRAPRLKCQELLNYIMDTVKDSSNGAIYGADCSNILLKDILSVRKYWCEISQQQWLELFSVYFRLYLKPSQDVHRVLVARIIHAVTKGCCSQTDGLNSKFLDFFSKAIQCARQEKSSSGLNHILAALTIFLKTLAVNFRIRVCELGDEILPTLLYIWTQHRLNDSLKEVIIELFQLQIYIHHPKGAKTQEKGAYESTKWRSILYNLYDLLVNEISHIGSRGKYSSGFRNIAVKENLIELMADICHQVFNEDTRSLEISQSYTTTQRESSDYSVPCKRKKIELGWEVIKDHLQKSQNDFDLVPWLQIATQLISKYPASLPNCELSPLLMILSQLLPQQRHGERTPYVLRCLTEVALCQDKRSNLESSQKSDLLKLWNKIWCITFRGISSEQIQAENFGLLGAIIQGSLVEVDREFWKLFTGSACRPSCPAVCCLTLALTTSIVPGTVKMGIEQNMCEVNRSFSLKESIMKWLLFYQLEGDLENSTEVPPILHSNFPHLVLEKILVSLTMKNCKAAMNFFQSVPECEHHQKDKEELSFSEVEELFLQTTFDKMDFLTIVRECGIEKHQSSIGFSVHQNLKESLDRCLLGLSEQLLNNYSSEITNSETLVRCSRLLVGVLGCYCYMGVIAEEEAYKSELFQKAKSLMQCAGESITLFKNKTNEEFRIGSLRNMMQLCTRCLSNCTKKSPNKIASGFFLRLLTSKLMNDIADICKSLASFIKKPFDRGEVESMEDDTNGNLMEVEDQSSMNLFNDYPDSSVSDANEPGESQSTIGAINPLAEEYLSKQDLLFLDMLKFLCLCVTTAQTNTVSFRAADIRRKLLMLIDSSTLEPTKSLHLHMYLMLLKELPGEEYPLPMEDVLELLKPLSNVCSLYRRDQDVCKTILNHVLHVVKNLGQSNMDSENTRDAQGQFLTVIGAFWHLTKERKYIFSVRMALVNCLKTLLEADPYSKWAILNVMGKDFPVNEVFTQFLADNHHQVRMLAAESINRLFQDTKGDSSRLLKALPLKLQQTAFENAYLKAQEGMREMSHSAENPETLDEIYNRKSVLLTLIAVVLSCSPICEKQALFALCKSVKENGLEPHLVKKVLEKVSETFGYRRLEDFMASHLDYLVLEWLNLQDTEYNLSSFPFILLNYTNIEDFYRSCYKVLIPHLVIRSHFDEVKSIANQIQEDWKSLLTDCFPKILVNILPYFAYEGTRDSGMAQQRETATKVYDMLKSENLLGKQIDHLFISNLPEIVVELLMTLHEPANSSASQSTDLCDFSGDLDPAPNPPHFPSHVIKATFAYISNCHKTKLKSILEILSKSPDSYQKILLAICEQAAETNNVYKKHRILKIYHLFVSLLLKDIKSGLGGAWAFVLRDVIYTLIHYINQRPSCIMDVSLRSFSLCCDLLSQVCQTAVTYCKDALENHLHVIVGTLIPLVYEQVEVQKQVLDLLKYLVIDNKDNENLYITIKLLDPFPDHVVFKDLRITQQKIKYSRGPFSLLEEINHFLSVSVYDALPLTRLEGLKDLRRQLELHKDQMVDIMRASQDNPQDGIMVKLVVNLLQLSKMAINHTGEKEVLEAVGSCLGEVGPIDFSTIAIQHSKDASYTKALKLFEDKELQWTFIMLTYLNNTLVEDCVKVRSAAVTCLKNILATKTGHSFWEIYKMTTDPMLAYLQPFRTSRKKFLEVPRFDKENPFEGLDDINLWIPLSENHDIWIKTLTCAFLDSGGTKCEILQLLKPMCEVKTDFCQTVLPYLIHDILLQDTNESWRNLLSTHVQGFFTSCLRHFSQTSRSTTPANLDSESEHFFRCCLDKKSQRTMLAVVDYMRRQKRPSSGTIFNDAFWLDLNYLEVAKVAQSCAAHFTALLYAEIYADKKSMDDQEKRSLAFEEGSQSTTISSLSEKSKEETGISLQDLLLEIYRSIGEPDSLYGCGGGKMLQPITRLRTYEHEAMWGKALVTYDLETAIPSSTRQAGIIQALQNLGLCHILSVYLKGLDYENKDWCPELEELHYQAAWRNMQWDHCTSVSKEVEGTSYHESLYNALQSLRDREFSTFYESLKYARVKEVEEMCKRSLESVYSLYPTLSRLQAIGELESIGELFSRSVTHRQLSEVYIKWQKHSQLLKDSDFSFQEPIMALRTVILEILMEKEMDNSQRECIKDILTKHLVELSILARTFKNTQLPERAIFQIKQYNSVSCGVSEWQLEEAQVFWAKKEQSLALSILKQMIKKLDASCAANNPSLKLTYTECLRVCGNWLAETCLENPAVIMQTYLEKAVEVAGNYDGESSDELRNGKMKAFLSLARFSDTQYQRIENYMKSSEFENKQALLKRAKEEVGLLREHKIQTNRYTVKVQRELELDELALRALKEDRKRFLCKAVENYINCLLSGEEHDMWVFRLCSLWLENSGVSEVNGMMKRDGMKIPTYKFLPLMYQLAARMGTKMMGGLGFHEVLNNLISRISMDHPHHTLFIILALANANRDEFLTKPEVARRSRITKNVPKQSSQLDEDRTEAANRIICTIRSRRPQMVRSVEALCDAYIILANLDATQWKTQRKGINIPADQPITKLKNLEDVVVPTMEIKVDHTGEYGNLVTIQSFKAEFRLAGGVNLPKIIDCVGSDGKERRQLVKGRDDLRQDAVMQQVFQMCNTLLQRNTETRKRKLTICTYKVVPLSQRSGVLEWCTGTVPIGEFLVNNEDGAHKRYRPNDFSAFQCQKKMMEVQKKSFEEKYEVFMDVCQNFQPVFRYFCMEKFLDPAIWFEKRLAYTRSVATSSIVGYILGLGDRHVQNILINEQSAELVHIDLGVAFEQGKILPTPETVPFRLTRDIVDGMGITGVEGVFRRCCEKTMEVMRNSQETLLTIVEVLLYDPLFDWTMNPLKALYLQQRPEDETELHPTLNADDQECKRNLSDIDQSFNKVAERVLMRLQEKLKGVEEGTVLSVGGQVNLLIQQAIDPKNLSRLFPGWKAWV

Consider “His-MBP-TEV-p53(1-102) (from UniProt P04637 1-102) (domain or fragment)”, for which the KM for p53 substrate, ATM activated by H2O2 (Phos-tag gel kinase assay, Michaelis-Menten) amounted to 29 µM; the KM for p53 substrate, basal conditions (Phos-tag gel kinase assay, Michaelis-Menten) was 80 µM; the KM for p53 substrate, in the presence of MRN and 350-base pair dsDNA (Phos-tag gel kinase assay, Michaelis-Menten) is 24 µM.
